# Reference: IntAct's records for PubMed 18278056
# B1: Insulin receptor substrate 2 (Mus musculus), P81122 (parent)
# chain: MASAPLPGPPASAGGDGPNLNNNNNNNNHSVRKCGYLRKQKHGHKRFFVLRGPGTGGDEASAAGGSPPQPPRLEYYESEKKWRSKAGAPKRVIALDCCLNINKRADAKHKYLIALYTKDEYFAVAAENEQEQEGWYRALTDLVSEGRSGEGGSGTTGGSCSASLPGVLGGSAGAAGCDDNYGLVTPATAVYREVWQVNLKPKGLGQSKNLTGVYRLCLSARTIGFVKLNCEQPSVTLQLMNIRRCGHSDSFFFIEVGRSAVTGPGELWMQADDSVVAQNIHETILEAMKALKELFEFRPRSKSQSSGSSATHPISVPGARRHHHLVNLPPSQTGLVRRSRTDSLAATPPAAKCTSCRVRTASEGDGGAAGGAGTAGGRPMSVAGSPLSPGPVRAPLSRSHTLSAGCGGRPSKVTLAPAGGALQHSRSMSMPVAHSPPAATSPGSLSSSSGHGSGSYPLPPGSHPHLPHPLHHPQGQRPSSGSASASGSPSDPGFMSLDEYGSSPGDLRAFSSHRSNTPESIAETPPARDGSGGELYGYMSMDRPLSHCGRPYRRVSGDGAQDLDRGLRKRTYSLTTPARQRQVPQPSSASLDEYTLMRATFSGSSGRLCPSFPASSPKVAYNPYPEDYGDIEIGSHKSSSSNLGADDGYMPMTPGAALRSGGPNSCKSDDYMPMSPTSVSAPKQILQPRLAAALPPSGAAVPAPPSGVGRTFPVNGGGYKASSPAESSPEDSGYMRMWCGSKLSMENPDPKLLPNGDYLNMSPSEAGTAGTPPDFSAALRGGSEGLKGIPGHCYSSLPRSYKAPCSCSGDNDQYVLMSSPVGRILEEERLEPQATPGAGTFGAAGGSHTQPHHSAVPSSMRPSAIGGRPEGFLGQRCRAVRPTRLSLEGLQTLPSMQEYPLPTEPKSPGEYINIDFGEAGTRLSPPAPPLLASAASSSSLLSASSPASSLGSGTPGTSSDSRQRSPLSDYMNLDFSSPKSPKPSTRSGDTVGSMDGLLSPEASSPYPPLPPRPSTSPSSLQQPLPPAPGDLYRLPPASAATSQGPTAGSSMSSEPGDNGDYTEMAFGVAATPPQPIVAPPKPEGARVASPTSGLKRLSLMDQVSGVEAFLQVSQPPDPHRGAKVIRADPQGGRRRHSSETFSSTTTVTPVSPSFAHNSKRHNSASVENVSLRKSSEGSSTLGGGDEPPTSPGQAQPLVAVPPVPQARPWNPGQPGALIGCPGGSSSPMRRETSVGFQNGLNYIAIDVRGEQGSLAQSQPQPGDKNSWSRTRSLGGLLGTVGGSGASGVCGGPGTGALPSASTYASIDFLSHHLKEATVVKE
# Variants of: B1
# Conditions: with INSR
row,Variant,effect of a mutation on the interaction
1,G629A,disrupting interaction
2,I633A,disrupting interaction
3,Y621A,disrupting interaction
4,Y624A,disrupting interaction
5,I631A,disrupting interaction
6,D627A,disrupting interaction
7,Y628F,disrupting interaction

# Variants of: B1
# Conditions: with igf1r_human IGF1R
row,Variant,effect of a mutation on the interaction
1,Y628F,disrupting interaction
